Data on 1 molecule can be found in US12359223B2, “Systems and methods for modulating chromosomal rearrangements” (Editas Medicine, Inc., priority 2018, dated 2025).

The data set deals with chromosome 15 (B2M) and chromosome 14 (TRAC) cut sites. As to the kind of experiment: Translocation rates induced by translocation promoting oligos. The format is cell-based, human. As to conditions: Cas9/B2M12 and Cas9/TRAC5 RNPs 0.6 μM; average of plus and minus strand oligo; FIG. 11B.

Description: Two simultaneous DSBs were introduced in primary human T cells by nucleofection with Cas9/B2M (B2M12 gRNA) and Cas9/TRAC (TRAC5 gRNA) RNP complexes at a concentration of 0.6 μM, along with one of the translocation promoting oligos depicted in FIG. 11A.

B1: Dicentric oligo: translocation promoting ssODN, plus or minus strand, SEQ ID NOs: 16, 17 (nucleic acid)
chain 1: CACGCGTTTAATATAAGTGGAGGCGTCGCGCTGGCGGGCATTCCTGAAGCTGACAGCATTCGGGCCGAGATGATCAGGGTTCTGGATATCTGTGGGACAAGAGGATCAGGGTTAGGACATGATCTCATTTCCCTCTTTGCCCC
chain 2: GGGGCAAAGAGGGAAATGAGATCATGTCCTAACCCTGATCCTCTTGTCCCACAGATATCCAGAACCCTGATCATCTCGGCCCGAATGCTGTCAGCTTCAGGAATGCCCGCCAGCGCGACGCCTCCACTTATATTAAACGCGTG
modifications: /note=“Description of Unknown Donor template sequence”
Turning to B1, the translocation products enhanced result was “enhanced the formation of Dicentric and Acentric translocation products”.
